Assay results from publication PMC10397247.

Legend:
[1] = target: T1, Core_NIII-es_KEEE; assay: two-hybrid library CCmax; conditions: mean of both orientations;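 also: natural log of median RNA to DNA barcode read ratio; higher means stronger binding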
T1 chain: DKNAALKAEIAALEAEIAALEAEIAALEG

[2] = target: T2, 4H1046-bN; assay: two-hybrid library CCNG1; conditions: mean of both orientations;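 also: natural log of median RNA to DNA barcode read ratio; higher means stronger binding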
T2 chain: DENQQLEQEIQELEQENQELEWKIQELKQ

[3] = target: T3, 4H1072-bN; assay: two-hybrid library CCNG1;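 also: natural log of median RNA to DNA barcode read ratio; higher means stronger binding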
T3 chain: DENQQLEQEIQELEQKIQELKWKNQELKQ

[4] = target: T4, 4H2568-bN; assay: two-hybrid library CCNG1;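 also: natural log of median RNA to DNA barcode read ratio; higher means stronger binding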
T4 chain: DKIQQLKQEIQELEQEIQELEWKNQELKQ

[5] = target: T5, 4H2619-bN; assay: two-hybrid library CCNG1;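 also: natural log of median RNA to DNA barcode read ratio; higher means stronger binding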
T5 chain: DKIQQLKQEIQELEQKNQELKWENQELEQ

[6] = target: T6, 4H2745-bN; assay: two-hybrid library CCNG1;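 also: natural log of median RNA to DNA barcode read ratio; higher means stronger binding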
T6 chain: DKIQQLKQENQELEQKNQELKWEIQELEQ

[7] = target: T7, 4H344-bN; assay: two-hybrid library CCNG1
T7 chain: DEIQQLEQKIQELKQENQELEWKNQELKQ

[8] = target: T8, 4H363-bN; assay: two-hybrid library CCNG1
T8 chain: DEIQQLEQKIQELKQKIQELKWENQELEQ

[9] = target: T9, 4H3907-bN; assay: two-hybrid library CCNG1
T9 chain: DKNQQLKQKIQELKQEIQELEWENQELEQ

[10] = target: T10, 4H3961-bN; assay: two-hybrid library CCNG1; conditions: mean of both orientations
T10 chain: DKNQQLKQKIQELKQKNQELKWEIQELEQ

[11] = target: T11, 4H470-bN; assay: two-hybrid library CCNG1
T11 chain: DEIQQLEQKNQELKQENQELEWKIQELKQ

[12] = target: T12, O1-bA; assay: two-hybrid library CCNG1
T12 chain: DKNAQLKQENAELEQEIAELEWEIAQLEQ

[13] = target: T13, O10-bA; assay: two-hybrid library CCNG1
T13 chain: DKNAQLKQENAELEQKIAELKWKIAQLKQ

[14] = target: T14, O11-bA; assay: two-hybrid library CCNG1
T14 chain: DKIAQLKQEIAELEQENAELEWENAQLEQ

[15] = target: T15, O12-bA; assay: two-hybrid library CCNG1
T15 chain: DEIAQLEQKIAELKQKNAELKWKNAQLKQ

[16] = target: T16, O13-bA; assay: two-hybrid library CCNG1
T16 chain: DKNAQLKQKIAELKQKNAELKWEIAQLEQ

[17] = target: T17, O14-bA; assay: two-hybrid library CCNG1
T17 chain: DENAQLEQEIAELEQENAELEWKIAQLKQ

[18] = target: T18, O15-bA; assay: two-hybrid library CCNG1
T18 chain: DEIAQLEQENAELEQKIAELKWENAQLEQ

[19] = target: T19, O16-bA; assay: two-hybrid library CCNG1
T19 chain: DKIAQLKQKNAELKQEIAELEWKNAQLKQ

[20] = target: T20, O2-bA; assay: two-hybrid library CCNG1
T20 chain: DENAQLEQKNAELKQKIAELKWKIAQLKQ

[21] = target: T21, O3-bA; assay: two-hybrid library CCNG1
T21 chain: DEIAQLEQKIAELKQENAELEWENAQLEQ

[22] = target: T22, O4-bA; assay: two-hybrid library CCNG1
T22 chain: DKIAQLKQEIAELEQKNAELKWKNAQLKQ

[23] = target: T23, O5-bA; assay: two-hybrid library CCNG1
T23 chain: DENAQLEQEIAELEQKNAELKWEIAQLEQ

[24] = target: T24, O6-bA; assay: two-hybrid library CCNG1
T24 chain: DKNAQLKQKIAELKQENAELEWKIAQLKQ

[25] = target: T25, O7-bA; assay: two-hybrid library CCNG1
T25 chain: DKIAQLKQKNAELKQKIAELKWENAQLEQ

[26] = target: T26, O8-bA; assay: two-hybrid library CCNG1
T26 chain: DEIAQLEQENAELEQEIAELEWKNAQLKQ

[27] = target: T27, O9-bA; assay: two-hybrid library CCNG1
T27 chain: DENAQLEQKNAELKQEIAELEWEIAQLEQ

[28] = target: T28, 4H1257-bN; assay: two-hybrid library CCNG1
T28 chain: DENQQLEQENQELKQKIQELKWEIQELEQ

[29] = target: T29, 4H1446-bN; assay: two-hybrid library CCNG1
T29 chain: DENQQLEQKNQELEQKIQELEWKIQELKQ

[30] = target: T30, 4H1828-bN; assay: two-hybrid library CCNG1
T30 chain: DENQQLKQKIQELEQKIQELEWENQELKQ

[31] = target: T31, 4H1845-bN; assay: two-hybrid library CCNG1
T31 chain: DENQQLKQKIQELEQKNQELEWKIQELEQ

[32] = target: T32, 4H2442-bN; assay: two-hybrid library CCNG1
T32 chain: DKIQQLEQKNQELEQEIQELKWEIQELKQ

[33] = target: T33, 4H2576-bN; assay: two-hybrid library CCNG1
T33 chain: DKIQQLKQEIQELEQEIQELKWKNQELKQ

[34] = target: T34, 4H2618-bN; assay: two-hybrid library CCNG1
T34 chain: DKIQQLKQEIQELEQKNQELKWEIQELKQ

[35] = target: T35, 4H2667-bN; assay: two-hybrid library CCNG1
T35 chain: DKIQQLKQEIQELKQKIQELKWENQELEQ

[36] = target: T36, 4H2729-bN; assay: two-hybrid library CCNG1
T36 chain: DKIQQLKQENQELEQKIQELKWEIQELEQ

[37] = target: T37, 4H3112-bN; assay: two-hybrid library CCNG1
T37 chain: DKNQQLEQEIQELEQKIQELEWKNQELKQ

[38] = target: T38, 4H3185-bN; assay: two-hybrid library CCNG1
T38 chain: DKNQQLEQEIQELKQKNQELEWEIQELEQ

[39] = target: T39, 4H331-bN; assay: two-hybrid library CCNG1
T39 chain: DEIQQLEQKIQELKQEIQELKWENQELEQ

[40] = target: T40, 4H3354-bN; assay: two-hybrid library CCNG1
T40 chain: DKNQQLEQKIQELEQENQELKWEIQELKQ

[41] = target: T41, 4H338-bN; assay: two-hybrid library CCNG1
T41 chain: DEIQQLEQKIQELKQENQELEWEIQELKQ

[42] = target: T42, 4H3427-bN; assay: two-hybrid library CCNG1
T42 chain: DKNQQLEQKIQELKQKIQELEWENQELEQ

[43] = target: T43, 4H3782-bN; assay: two-hybrid library CCNG1
T43 chain: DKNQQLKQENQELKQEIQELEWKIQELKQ

[44] = target: T44, 4H3855-bN; assay: two-hybrid library CCNG1
T44 chain: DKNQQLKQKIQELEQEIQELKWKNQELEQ

[45] = target: T45, 4H4001-bN; assay: two-hybrid library CCNG1
T45 chain: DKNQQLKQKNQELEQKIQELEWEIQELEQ

[46] = target: T46, 4H454-bN; assay: two-hybrid library CCNG1
T46 chain: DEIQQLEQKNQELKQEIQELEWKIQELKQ

[47] = target: T47, 4H568-bN; assay: two-hybrid library CCNG1
T47 chain: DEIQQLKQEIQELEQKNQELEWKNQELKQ

[48] = target: T48, 4H607-bN; assay: two-hybrid library CCNG1
T48 chain: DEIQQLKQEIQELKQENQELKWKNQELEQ

[49] = target: T49, 4H687-bN; assay: two-hybrid library CCNG1
T49 chain: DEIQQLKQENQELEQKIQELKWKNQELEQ

[50] = target: T50, 4H717-bN; assay: two-hybrid library CCNG1
T50 chain: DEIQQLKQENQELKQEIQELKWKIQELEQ

[51] = target: T51, 4H72-bN; assay: two-hybrid library CCNG1
T51 chain: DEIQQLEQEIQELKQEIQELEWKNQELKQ

[52] = target: T52, 4H754-bN; assay: two-hybrid library CCNG1
T52 chain: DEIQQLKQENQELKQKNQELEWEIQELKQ

[53] = target: T53, 4H797-bN; assay: two-hybrid library CCNG1
T53 chain: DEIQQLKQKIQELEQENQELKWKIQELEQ

[54] = target: T54, 4H883-bN; assay: two-hybrid library CCNG1
T54 chain: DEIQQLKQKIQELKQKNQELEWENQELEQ

[55] = target: T55, 4H908-bN; assay: two-hybrid library CCNG1
T55 chain: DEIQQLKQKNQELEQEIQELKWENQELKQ

[56] = target: T56, 4H918-bN; assay: two-hybrid library CCNG1
T56 chain: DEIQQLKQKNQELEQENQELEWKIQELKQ

[57] = target: T57, 4H953-bN; assay: two-hybrid library CCNG1
T57 chain: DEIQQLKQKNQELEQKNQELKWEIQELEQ

[58] = target: T58, 4H967-bN; assay: two-hybrid library CCNG1
T58 chain: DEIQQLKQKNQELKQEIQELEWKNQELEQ

[59] = target: T59, P3A-bN; assay: two-hybrid library CCNG1
T59 chain: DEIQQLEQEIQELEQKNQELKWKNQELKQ

[60] = target: T60, Core_NINN-es_KKEK; assay: two-hybrid library CCmax; conditions: mean of both orientations
T60 chain: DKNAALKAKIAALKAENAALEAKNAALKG

Which interaction score [1] does the source give for DENAALEAKIAALKAKIAALKAKIAALKG [Core_NIII-es_EKKK] here?
The interaction score was 2.17.

For DENQQLEQEIQELEQENQELEWKIQELKQ [4H1046-bN], which interaction score [2] is on record?
The interaction score was -0.38.

And the interaction score [3]?
Its interaction score is -0.367.

And the interaction score [4]?
The interaction score was 0.836.

What about the interaction score [5] of the same binder?
Its interaction score is -1.35.

And the interaction score [6]?
Its interaction score is -0.112.

What about the interaction score [7] of the same binder?
Its interaction score is 0.965.

And the interaction score [8]?
Its interaction score is -0.252.

What about the interaction score [9] of the same binder?
The interaction score was -0.5.

What about the interaction score [10] of the same binder?
The interaction score was 1.37.

What about the interaction score [11] of the same binder?
The interaction score was 0.0233.

Which results are given for DKNAQLKQENAELEQEIAELEWEIAQLEQ [O1-bA]?
interaction score [12]: -0.889; interaction score [13]: 1.21; interaction score [14]: -1.05; interaction score [15]: -0.825; interaction score [16]: 0.415; interaction score [17]: -1.02; interaction score [18]: -1.03; interaction score [19]: -0.581; interaction score [20]: 2.31; interaction score [21]: -1.08; interaction score [22]: -1.53; interaction score [23]: -1.23; interaction score [24]: -0.599; interaction score [25]: -0.0848; interaction score [26]: -1.59; interaction score [27]: -0.823

How did the interaction score [28] turn out when DENQQLEQENQELKQKIQELKWEIQELEQ [4H1257-bN] was run?
The interaction score was -1.67.

What about the interaction score [29] of the same binder?
Its interaction score is -0.533.

What about the interaction score [30] of the same binder?
Its interaction score is -0.561.

What about the interaction score [31] of the same binder?
The interaction score was -0.503.

And the interaction score [32]?
Its interaction score is -1.13.

What about the interaction score [33] of the same binder?
Its interaction score is -0.613.

What about the interaction score [34] of the same binder?
Its interaction score is -0.173.

What about the interaction score [35] of the same binder?
Its interaction score is -1.35.

And the interaction score [36]?
The interaction score was -0.506.

What about the interaction score [37] of the same binder?
Its interaction score is -0.702.

And the interaction score [38]?
Its interaction score is -1.45.

What about the interaction score [39] of the same binder?
The interaction score was -1.48.

What about the interaction score [40] of the same binder?
Its interaction score is -1.08.

What about the interaction score [41] of the same binder?
The interaction score was -0.857.

And the interaction score [42]?
The interaction score was -0.768.

What about the interaction score [43] of the same binder?
Its interaction score is 1.9.

What about the interaction score [44] of the same binder?
The interaction score was -0.77.

And the interaction score [45]?
The interaction score was -1.89.

What about the interaction score [46] of the same binder?
Its interaction score is 0.889.

What about the interaction score [47] of the same binder?
Its interaction score is -1.28.

What about the interaction score [48] of the same binder?
Its interaction score is -0.95.

And the interaction score [49]?
Its interaction score is -1.24.

And the interaction score [50]?
Its interaction score is -1.05.

What about the interaction score [51] of the same binder?
The interaction score was -1.99.

What about the interaction score [52] of the same binder?
The interaction score was -1.46.

And the interaction score [53]?
Its interaction score is -0.946.

What about the interaction score [54] of the same binder?
Its interaction score is -1.31.

What about the interaction score [55] of the same binder?
The interaction score was -1.39.

And the interaction score [56]?
Its interaction score is -1.21.

What about the interaction score [57] of the same binder?
Its interaction score is -0.733.

What about the interaction score [58] of the same binder?
Its interaction score is -0.47.

What about the interaction score [59] of the same binder?
The interaction score was -1.36.

DENAALEAEIAALEAKNAALKAENAALEG [Core_NINN-es_EEKE] was tested. Which interaction score [60] did it give?
Its interaction score is 1.78.
